B1: UlaDEc: Enzyme candidate for BDO biosynthetic pathway step A5, SEQ ID NO. 68 (protein, listed as Escherichia coli)
chain: MSLPMLQVALDNQTMDSAYETTRLIAEEVDIIEVGTILCVGEGVRAVRDLKALYPHKIVLADAKIADAGKILSRMCFEANADWVTVICCADINTAKGALDVAKEFNGDVQIELTGYWTWEQAQQWRDAGIGQVVYHRSRDAQAAGVAWGEADITAIKRLSDMGFKVTVTGGLALEDLPLFKGIPIHVFIAGRSIRDAASPVEAARQFKRSIAELWG
B2: KgdMs: Enzyme candidate for BDO biosynthetic pathway step A5, SEQ ID NO. 69 (protein, listed as Mycobacterium smegmatis)
chain: MSSSPSPFGQNEWLVEEMYRKFRDDPSSVDPSWHEFLVDYSPEPTTDSASNGRTTTAAPVTPPTPAPAPAPEPKAAPKPAAKTEAKPAKPAKSATPAKGDESQILRGAAAAVVKNMNASLEVPTATSVRAIPAKLMIDNRVVINNHLKRTRGGKISFTHLLGYAIVQAVKKFPNMNRHFAVVDGKPTAITPAHTNLGLAIDLQGKDGNRSLVVAAIKRCETMRFGQFIAAYEDIVRRARDGKLTAEDFSGVTISLTNPGTLGTVHSVPRLMQGQGAIIGAGAMEYPAEFQGASEERIADLGIGKLITLTSTYDHRIIQGAESGDFLRTIHQLLLDDDFFDEIFRELGIPYEPVRWRTDNPDSIEDKNARVIELIAAYRNRGHLMADIDPLRLDNTRFRSHPDLDVNSHGLTLWDLDREFKVDGFAGVQRKKLRDILSVLRDAYCRHVGVEYTHILEPEQQRWIQERVETKHDKPTVAEQKYILSKLNAAEAFETFLQTKYVGQKRFSLEGAETVIPMMDAVIDQCAEHGLDEVVIAMPHRGRLNVLANIVGKPYSQIFSEFEGNLNPSQAHGSGDVKYHLGATGTYIQMFGDNDIEVSLTANPSHLEAVDPVLEGLVRAKQDLLDTGEEGSDNRFSVVPLMLHGDAAFAGQGVVAETLNLALLRGYRTGGTIHIVVNNQIGFTTAPTDSRSSEYCTDVAKMIGAPIFHVNGDDPEACAWVARLAVDFRQAFKKDVVIDMLCYRRRGHNEGDDPSMTQPYMYDVIDTKRGSRKAYTEALIGRGDISMKEAEDALRDYQGQLERVFNEVRELEKHEIEPSESVEADQQIPSKLATAVDKAMLQRIGDAHLALPEGFTVHPRVRPVLEKRREMAYEGRIDWAFAELLALGSLIAEGKLVRLSGQDTQRGTFTQRHAVIVDRKTGEEFTPLQLLATNPDGTPTGGKFLVYNSALSEFAAVGFEYGYSVGNPDAMVLWEAQFGDFVNGAQSIIDEFISSGEAKWGQLSDVVLLLPHGHEGQGPDHTSGRIERFLQLWAEGSMTIAMPSTPANYFHLLRRHGKDGIQRPLIVFTPKSMLRNKAAVSDIRDFTESKFRSVLEEPMYTDGEGDRNKVTRLLLTSGKIYYELAARKAKENREDVAIVRIEQLAPLPRRRLAETLDRYPNVKEKFWVQEEPANQGAWPSFGLTLPEILPDHFTGLKRISRRAMSAPSSGSSKVHAVEQQEILDTAFG
B3: YiaQEc: Enzyme candidate for BDO biosynthetic pathway step A5, SEQ ID NO. 67 (protein, listed as Escherichia coli)
chain: MSRPLLQLALDHSSLEAAQRDVTLLKDSVDIVEAGTILCLNEGLGAVKALREQCPDKIIVADWKVADAGETLAQQAFGAGANWMTIICAAPLATVEKGHAMAQRCGGEIQIELFGNWTLDDARDWHRIGVRQAIYHRGRDAQASGQQWGEADLARMKALSDIGLELSITGGITPADLPLFKDIRVKAFIAGRALAGAANPAQVAGDFHAQIDAIWGGARA
B4: LysAEc: Enzyme candidate for BDO biosynthetic pathway step A5, SEQ ID NO. 66 (protein, listed as Escherichia coli)
chain: MPHSLFSTDTDLTAENLLRLPAEFGCPVWVYDAQIIRRQIAALKQFDVVRFAQKACSNIHILRLMREQGVKVDSVSLGEIERALAAGYNPQTHPDDIVFTADVIDQATLERVSELQIPVNAGSVDMLDQLGQVSPGHRVWLRVNPGFGHGHSQKTNTGGENSKHGIWYTDLPAALDVIQRHHLQLVGIHMHIGSGVDYAHLEQVCGAMVRQVIEFGQDLQAISAGGGLSVPYQQGEEAVDTEHYYGLWNAAREQIARHLGHPVKLEIEPGRFLVAQSGVLITQVRSVKQMGSRHFVLVDAGFNDLMRPAMYGSYHHISALAADGRSLEHAPTVETVVAGPLCESGDVFTQQEGGNVETRALPEVKAGDYLVLHDTGAYGASMSSNYNSRPLLPEVLFDNGQARLIRRRQTIEELLALELL
B5: ARO10Sc: Enzyme candidate for BDO biosynthetic pathway step A5, SEQ ID NO. 70 (protein, listed as Saccharomyces cerevisiae)
chain: MAPVTIEKFVNQEERHLVSNRSATIPFGEYIFKRLLSIDTKSVFGVPGDFNLSLLEYLYSPSVESAGLRWVGTCNELNAAYAADGYSRYSNKIGCLITTYGVGELSALNGIAGSFAENVKVLHIVGVAKSIDSRSSNFSDRNLHHLVPQLHDSNFKGPNHKVYHDMVKDRVACSVAYLEDIETACDQVDNVIRDIYKYSKPGYIFVPADFADMSVTCDNLVNVPRISQQDCIVYPSENQLSDIINKITSWIYSSKTPAILGDVLTDRYGVSNFLNKLICKTGIWNFSTVMGKSVIDESNPTYMGQYNGKEGLKQVYEHFELCDLVLHFGVDINEINNGHYTFTYKPNAKIIQFHPNYIRLVDTRQGNEQMFKGINFAPILKELYKRIDVSKLSLQYDSNVTQYTNETMRLEDPTNGQSSIITQVHLQKTMPKFLNPGDVVVCETGSFQFSVRDFAFPSQLKYISQGFFLSIGMALPAALGVGIAMQDHSNAHINGGNVKEDYKPRLILFEGDGAAQMTIQELSTILKCNIPLEVIIWNNNGYTIERAIMGPTRSYNDVMSWKWTKLFEAFGDFDGKYTNSTLIQCPSKLALKLEELKNSNKRSGIELLEVKLGELDFPEQLKCMVEAAALKRNKK
B6: HomCg: Enzyme candidate for BDO biosynthetic pathway step A3, SEQ ID NO. 22 (protein, listed as Corynebacterium glutamicum)
chain: MTSASAPSFNPGKGPGSAVGIALLGFGTVGTEVMRLMTEYGDELAHRIGGPLEVRGIAVSDISKPREGVAPELLTEDAFALIEREDVDIVVEVIGGIEYPREVVLAALKAGKSVVTANKALVAAHSAELADAAEAANVDLYFEAAVAGAIPVVGPLRRSLAGDQIQSVMGIVNGTTNFILDAMDSTGADYADSLAEATRLGYAEADPTADVEGHDAASKAAILASIAFHTRVTADDVYCEGISNISAADIEAAQQAGHTIKLLAICEKFTNKEGKSAISARVHPTLLPVSHPLASVNKSFNAIFVEAEAAGRLMFYGNGAGGAPTASAVLGDVVGAARNKVHGGRAPGESTYANLPIADFGETTTRYHLDMDVEDRVGVLAELASLFSEQGISLRTIRQEERDDDARLIVVTHSALESDLSRTVELLKAKPVVKAINSVIRLERD
B7: HomAu: Enzyme candidate for BDO biosynthetic pathway step A3, SEQ ID NO. 24 (protein, listed as Arthrobacter aurescens)
chain: MSEMRTLKVALLGCGNVGAQVARILIDDAEALAARSGARLELSGIAVRNVDSPRDVELPRELFTTDADTLVKDADLVIELMGGIEPARSLILTAIQNGACVVTGNKALLAQDGPTLYEEADKAGVQLSYEAAVAGAIPILRPIRDSLSGDRITRVLGIVNGTTNFILDQMDSTGAQFADALAEAQRLGYAEADPTADVEGHDAAAKAAILASLSFHTRFSLDDVYCEGITKVSAADIASAKEAGFVIKLLAIAEKIDSSDNGSGISVRVHPTLLPREHPLAAVRGAFNAVFIEAENAGELMFYGQGAGGTPTASAVLGDLVSAARRLVLGGPGRTETTTGHVPALAIDASNTSYYIGLDVADQAGVLARIAHIFAENGVSIEIMRQTIHRDSASNVESAELKIVTHRASEAALAATVEAVKGLDVINSVTSVLRVEGV

Tested on: 5-hydroxy-2-oxopentanoate
Assay: Enzyme assay, decarboxylase (step A5), aldehyde dehydrogenase linked reaction
Assay type: biochemical
Parameters: key: +: measureable activity detected in the assay; −: no measurable activity detected in the assay
Conditions: BDO biosynthetic pathway step A5
Method: (§1) Enzyme expression and crude lysate preparation. The enzymatic activity of each candidate enzyme is evaluated, first in E. coli and subsequently in C. glutamicum. It will be apparent to one of skill in the art that the expression and lysate preparations may need to be modified depending on the host cell and recombinant gene of interest.
(§2) E. coli: E. coli strains transformed with expression clones, for example, pUC18 or MB4124 based clones having a medium strong constitutive promoter regulating the recombinant gene of interest, are grown aerobically in LB medium (Difco) containing the appropriate antibiotic(s). At an OD600 of 0.5, IPTG is added to a final concentration of 0.25 mM. The cultures are grown to a final OD600 of 1.5 at which time the cells are collected and harvested by centrifugation. Cell pellets are resuspended in BugBuster (Novagen) reagent containing benzonase and lysozyme. Alternatively, E. coli strains transformed with expression clones, are grown overnight aerobically at 37° C. in BHI containing the appropriate antibiotic(s). 300 μL of fresh overnight culture is used to inoculate 2.7 mL BHI containing 0.25 mM IPTG and the appropriate antibiotic. The cultures are grown aerobically for 4-5 hours at 37° C. at which time the cells are collected and harvested by centrifugation. Cell pellets are frozen at −80° C. for at least 15 minutes, then thawed and resuspended in BugBuster (Novagen) reagent. Lysis and lysate collection are performed according to the manufacturer's instructions and, for example, may involve use of a sonicator and/or French press. Cleared lysates are stored on ice until enzyme assays are performed.
(§3) C. glutamicum: C. glutamicum strains transformed with MB4124 expression clones containing the recombinant gene of interest are grown aerobically in BHI broth supplemented with the proper antibiotic(s). At an OD600 of 0.5, IPTG is added to a final concentration of 0.25 mM. The cultures are grown to a final OD600 of 1.5 at which time the cells are collected and harvested by centrifugation. The pellet is washed once in one volume of water and resuspended in lysis buffer (1.0 ml 1.0 M HEPES buffer, pH 7.5, 0.5 ml 1M KOH, 10 μl 0.5M EDTA, protease inhibitor cocktail, water to 5 ml; the final pH will vary depending on the individual enzyme being tested) and one volume of 0.1 mm acid washed glass beads. The mixture is repeatedly alternately vortexed and held on ice for 15 seconds, eight times. After centrifugation for 5 min at 4,000 rpm, the supernatant lysate is removed and respun for 20 min at 10,000 rpm. Alternatively, C. glutamicum strains transformed with MB4124 expression clones containing the recombinant gene of interest are grown aerobically overnight in BHI broth supplemented with the proper antibiotic(s). Five mL of fresh overnight culture is used to inoculate 200 mL BHI containing 0.25 mM IPTG and the appropriate antibiotic. The cultures are grown aerobically at 30° C. for 5-7 hours at which time the cells are collected and harvested by centrifugation at 4° C. The pellet is resuspended in 15 mL ice cold 39 mM KH2PO4, 61 mM K2HPO4, 0.5 M KCl and lysed using a BioSpec BeadBeater and following the manufacturer's instructions. The lysate is centrifuged at 16,000 RPM at 4° C. for 30 minutes and the supernatant retained on ice as the extract.
Protein Assays. Protein concentrations in lysates are determined according to the methods of Bradford et al. (Anal. Biochem. 72:248-254 [1976]) or by the method of Smith et al. (Anal. Biochem. 150(1):76-85 [1985]) and lysates are assayed according to the methods below.
Enzyme Assays. Enzyme assays are performed on the cell lysates prepared above. The activity for each recombinant enzyme is compared to a lysate from a vector only control culture which is generated in a fashion identical to the recombinant enzyme lysate. […]

Molecule	Enzyme Assay
B1	−
B2	−
B3	−
B4	−
B5	−

Tested on: L-glutamate 5-semialdehyde (GSA)
Assay: Enzyme assay, oxidoreductase (step A3), cell lysates
Assay type: biochemical
Parameters: key: +: measureable activity detected in the assay; −: no measurable activity detected in the assay
Conditions: BDO biosynthetic pathway step A3
Method: as §1, §2
as §3, with “The lysate is centrifuged at 16,000 RPM at 4° C. for 30 minutes and the supernatant retained on ice as the extract.” left out
Protein Assays. Protein concentrations in lysates are determined according to the methods of Bradford et al. (Anal. Biochem. 72:248-254 [1976]) or by the method of Smith et al. (Anal. Biochem. 150(1):76-85 [1985]) and lysates are assayed according to the methods below. […]

Molecule	Enzyme Assay
B6	−
B7	−

— patent publication US20110014669A1, “Production of 1,4 Butanediol in a Microorganism” (Microbia, Inc., priority 2009, published 2011)
